# Source: patent US20200237885A1, “VACCINES FOR TREATMENT AND PREVENTION OF CANCER” (Agenus Inc., priority 2015, published 2020)
# Where no end group is shown, it is not given here. [ ]: non-standard residue; d: D form. pS = N[C@@H](COP(=O)(O)O)C(=O)O
# Experiments:
# [1] = target: T1, recombinant human Hsc70 (Homo sapiens, UniProt P11142); test: Hsc70-peptide complex formation by size exclusion chromatography (SEC); format: binding; conditions: for Percentage of Hsc70 loaded with peptide: peptide:Hsc70 4:1 molar excess, PBS 37° C. 1 hour
# T1 construct: purchased Biomay AG
# Description: Hsc70-peptide complex formation was examined in vitro using size exclusion chromatography (SEC). Hsc70 resolves in two main peaks on a size exclusion column, with one peak corresponding to its monomeric form and the other peak to an oligomeric form (FIG. 14). Hsc70 undergoes a conformational change upon binding peptide (Zhuravleva and Gierasch, P.N.A.S. 112[22]:E2865-73 [2015]), resulting in the appearance of a new peak on the SEC chromatogram that corresponds to the peptide-bound form (FIG. 15). By measuring the surface area of each of the peaks corresponding to the forms of Hsc70 on a chromatogram, the percentage of Hsc70 complexed with a peptide can be determined. The effect of the molar ratio of Hsc70 to peptide on Hsc70-peptide complex formation was determined by combining Hsc70 and a test peptide at Hsc70/peptide molar ratios of 1:4, 1:10, 1:20, and 1:50, and then resolving the resulting mixtures by SEC to determine the extent of complex formation. The peptide used in these experiments was the immunogenic peptide B16-M27 (“M27”), containing a B16-F10 melanoma-specific mutation, as described in Kreiter et al., Nature 520(7549):692-6 (2015) (also described in Examples 9-11). The effect on complex formation of appending a high affinity Hsc70-binding peptide sequence to a chicken ovalbumin peptide having the amino acid sequence SIINFEKL (SEQ ID NO:448), that is highly immunogenic in mice (Zehn et al, Nature 458:211-214 [12 Mar., 2009]) was also tested. The high affinity Hsc70 binding sequence, NLLRLTG (SEQ ID NO:439) was appended to either the C- or N-terminus of the ovalbumin peptide, and was linked to the ovalbumin peptide by a linker having the sequence FFRK (SEQ ID NO:447), as disclosed in U.S. Pat. No. 7,309,491.
# Standard size exclusion chromatography was carried out using 7 μM of recombinant human Hsc70 (Genbank Accession No. P11142.1) (Biomay AG) in a reaction buffer containing 20 mM HEPES and 200 mM KCL in a final volume of 50 μl. Reactions were incubated at 37° C. for 1 or 2 hours and centrifuged 2 min at 13000 RPM. Reaction products (10 μg) were resolved on a TSKgel SuperSW3000, 4 μm particle size, 25 nm pore size gel filtration chromatography column (Tosoh Bioscience). For reactions containing peptide, peptide was included in the reaction mixtures at Hsc70:peptide molar ratios of 1:4, 1:10, 1:20, and 1:50. The percentage of Hsc70 complexed with peptide in each reaction mixture was calculated by measuring the surface area of the appropriate peak.
# The peptides listed above were individually incubated with Hsc70 in PBS at 37° C. for 1 hour to form non-covalent Hsc70-peptide complexes. For M27 and M30, the peptides were added to Hsc70 at a 20:1 molar excess (peptide:Hsc70) while for M27-Jav and M30-Jav, the peptides were added at a 4:1 molar excess. After incubation, the mixtures were diluted 10 times in PBS at 4° C. and concentrated using a 30 kDa MW cut off Millipore® Amicon® centrifugal filter to separate Hsc70-peptide complexes from free, uncomplexed peptide. The retained complexes 5 Hsc70-M27 and Hsc70-M30 were pooled and subsequently analyzed by size exclusion chromatography (SEC) to quantify the proportion of Hsc70 molecules loaded with peptide. […] The same pooling, filtration and SEC analysis steps were followed for the Hsc70-M27-Jay and Hsc70-M30-Jav complexes with the observation that 73% of the Hsc70 molecules were loaded with the peptides.
# Four peptides (Table 9) containing a phosphorylated serine residue were synthesized to 95% purity (GenScript, Cambridge, Mass.). The peptides comprise HLA-A*02:01 binding epitopes of the CDC25 or IRS-2 antigen modified at either their C-termini or N-termini with the addition of a linker sequence FFRK (SEQ ID NO:447) and a high affinity HSP binding peptide sequence NLLRLTG (SEQ ID NO: 439). These peptides were individually incubated with Hsc70 in PBS at 37° C. for 1 hour at a 4:1 molar excess (peptide:Hsc70) to form non-covalent Hsc70-peptide complexes. […]
# [2] = target: T1, recombinant human Hsc70; test: as above; format: binding
# [3] = Hsc70:peptide molar ratio 1:10, 37° C.
# T1 sequence (P11142 whole entry): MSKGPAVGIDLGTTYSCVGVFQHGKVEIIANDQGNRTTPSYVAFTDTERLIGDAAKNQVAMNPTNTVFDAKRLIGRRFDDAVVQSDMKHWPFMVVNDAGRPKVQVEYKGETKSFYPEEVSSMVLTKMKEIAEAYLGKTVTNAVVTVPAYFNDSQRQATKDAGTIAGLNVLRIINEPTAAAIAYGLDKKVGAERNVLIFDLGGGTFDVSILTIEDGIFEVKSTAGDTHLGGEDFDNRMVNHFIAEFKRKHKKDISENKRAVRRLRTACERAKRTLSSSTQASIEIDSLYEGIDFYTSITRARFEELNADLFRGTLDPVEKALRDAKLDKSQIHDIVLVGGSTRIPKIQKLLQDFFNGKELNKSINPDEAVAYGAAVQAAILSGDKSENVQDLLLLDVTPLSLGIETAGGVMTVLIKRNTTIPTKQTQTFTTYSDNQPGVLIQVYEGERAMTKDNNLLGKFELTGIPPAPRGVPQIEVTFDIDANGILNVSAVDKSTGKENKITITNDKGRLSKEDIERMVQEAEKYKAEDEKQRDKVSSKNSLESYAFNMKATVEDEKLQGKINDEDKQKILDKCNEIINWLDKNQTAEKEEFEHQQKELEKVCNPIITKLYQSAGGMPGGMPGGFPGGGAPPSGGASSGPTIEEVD
Substance,Percentage of Hsc70 loaded with peptide [1] [%],"percentage of Hsc70 complexed with peptide [1, 3]",also measured
GLLG{pSer}PVRAFFRKNLLRLTG (GLLG[pS]PVRAFFRKNLLRLTG) [SEQ ID NO 474],74,–,–
NLLRLTGFFRKGLLG{pSer}PVRA (NLLRLTGFFRKGLLG[pS]PVRA) [SEQ ID NO 473],41,–,–
NLLRLTGFFRKRVA{pSer}PTSGV (NLLRLTGFFRKRVA[pS]PTSGV) [SEQ ID NO 475],34,–,–
REGVELCPGNKYEMRRHGTTHSLVIHD (M27),–,approximately 40%,"percentage of Hsc70 bound to peptide ([1]; Hsc70:peptide molar ratio 1:4, 37° C.): 20%; percentage of Hsc70 complexed with peptide ([1]; Hsc70:peptide molar ratio 1:20, 37° C.): approximately 50%; percentage of Hsc70 complexed with peptide ([1]; Hsc70:peptide molar ratio 1:50, 37° C.): approximately 65%; change in extent of complex formation with incubation time ([2]; incubation time increased from 2 to 3 hours at 37° C.): only a minor increase"
RVA{pSer}PTSGVFFRKNLLRLTG (RVA[pS]PTSGVFFRKNLLRLTG) [SEQ ID NO 476],75,–,–
"SIINFEKLFFRKNLLRLTG [SEQ ID NO:449, reference compound]",–,over 90%,"extent of complex formation, NLLRLTG at C-terminus compared to N-terminus ([2]; Hsc70:peptide molar ratio 1:2, same result at 1:5): significantly greater"
